The values below come from patent US20260117244A1, “INHIBITORY RNA FOR THE CONTROL OF PHYTOPATHOGENS” (priority 2021, published 2026).

The data set concerns G. orontii MGH1. Briefly: Spray-induced gene silencing (SIGS), G. orontii spore production on A. thaliana (whole plant and detached leaf assays). Type of data set: in vivo, Golovinomyces orontii. The conditions noted are these: for average reduction in spore production / effect on spore production: vs buffer control; for effect on spore production: long dsRNA.
Setting [1] is: A. thaliana detached leaf assay.

B1: BCDO dsRNA: long dsRNA targeting G. orontii MGH1 BCDO (target SEQ ID NO:145) (nucleic acid)
chain: ACTGCTCATAGTAATCCTATCCTATTTGCCCGGCTCGACTCAGGTGATCAAAAGGATTAGTGTAGCTAACACCAATATCTTATACCATGATGGACGGGCTTTGGCGACCTGCGAAAGTGGCCCACCAATGAGAGTTGTTCTCCCTCATCTGGATACAGTCGGTTGGTTCGATGGGCTGAAGGTAGGGGGAGAAAAGGCTACCGATGAATCGGACGGTCAATCCTTTGCGAAAGAAGGAACCTTTAATGTATTGGATGGACGGACAAC
modifications: misc_feature 1..267: note = Inhibitory double stranded RNA; listed as RNA
In the case of B1, the “average reduction in spore production” value was 54% under setting [1] and 50% (A. thaliana whole plant assay).

B2: CYP51 dsRNA-1: long dsRNA targeting G. orontii MGH1 CYP51 (target SEQ ID NO:85); link to SEQ ID NO:212 likely (nucleic acid)
chain: TACGTGAAGAAGTGTCCCAGCTTCAAAGGACAAAAAGGCACCGTTAATATAACTGAAGTTATGGCTGAAATCACTATCTACACTGCTTCGCATACTCTACAAGGAAAACAGGTTCGTGACAGGTTTGATTCCTCTTTTGCCGCTCTCTATCATGACCTCGATATGGGGTTCACCCCAATTAATTTTGTGCTGCATTGGG
modifications: misc_feature 1..199: note = Inhibitory double stranded RNA; listed as RNA
On to B2, for which the “average reduction in spore production” value turned out to be 30% under setting [1] and 46% (A. thaliana whole plant assay). Besides, the “visual powdery mildew coverage and density” value (A. thaliana plants, 9 days post infection, vs buffer control-sprayed plants) is “less powdery mildew coverage and density”.

B3: OEC14 dsRNA: long dsRNA against G. orontii effector candidate 14 (target SEQ ID NO:124) (nucleic acid)
chain: CACAACAGCTCTCCTAATCTCTCCCTCCCTAGGAGTTAATTCAGCTCAGAACGGCGAAACTCCCGATGACGATTCATTAGGTTCTACGAAACACATGAACTTTGGCTCTGGTCTCTCTGAATTCAATGCTCATGAAGATATGTATGTTCCTGCCATGGATCTGAATGGGTTTAGAATAAAGCGACGACATTTTCAAAATGAAGGCTATTACTGCAGCAAATCG
modifications: misc_feature 1..223: note = Inhibitory double stranded RNA; listed as RNA
With B3, under “A. thaliana whole plant assay”, the “effect on spore production” value was “significantly reduced spore production”.

B4: OEC70 dsRNA: long dsRNA against G. orontii effector candidate 70 (target SEQ ID NO:123) (nucleic acid)
chain: ACAGAGACCGTAACCGTAACTGTCTGTGCACCATCTGCCTCTGCCCATCCCTCTTCGGGATATGCTATGCCATCAGTCTATCCGGCACCAGTTTCATCAGACCCTGCCAGTCCTGCATACCCGCCAAGCGCTTCTGGTGGCTACTCCTCTCCACCACCAAACCAAACTCCAGCACCATTCACCGGCGCCGCTTCAGCAAACGCAGCTCAGGTAGTATCAGCCATTATTGCTGC
modifications: misc_feature 1..233: note = Inhibitory double stranded RNA; listed as RNA
For B4, for the setting “A. thaliana whole plant assay”, the “effect on spore production” value is “significantly reduced spore production”.

B5: LIP1 dsRNA: long dsRNA against G. orontii TAG lipase 1 (target SEQ ID NO:1) (nucleic acid)
chain: ACCTCTGCTGGTTCTATCTCTGCTTTTAACTTATTAGTCGCCAAAGATGGTGCTTTATCTTATAATGGCAAACCGCTATTCCGTGCTGCTATTATGGACAGTGGTAGCATCGTGCCTACTGATGCGGTGAACTCCCCGAAGCCACAAAATGTTTTCGATCAAGTCGTGAGTGCTGGAGGCTGTAGTGAAGCATATGACAAAATTAGCTGTCTACGGAATCTCGACTACACCGAGTTTTTGTTCGCAAGTACATCAGTTCCTGGTCTATTTGACTACCAATCAGTAGCACTTTCATACATCCCGCGACCTGACGGTGATCTTTTGACCGCATCTATGGATGAATT
modifications: misc_feature 1..344: note = Inhibitory double stranded RNA; listed as RNA
For B5, the “average reduction in spore production” value under setting [1] was 51% and the “average reduction in spore production” value (A. thaliana whole plant assay) was found to be 22%.

B6: LIPA dsRNA: long dsRNA against G. orontii TAG lipase A (target SEQ ID NO:2) (nucleic acid)
chain: CTCTTACGCTCATTCTCACGTATATTTCATCGTCGAAAAGGAAGTAGGCCAGAAAGACATATGCACTCTAACATTGAATGTACGAACTGCACTGTTCATATGGGATTTTGGACAAGCTACCAACAAATACGTCCTCATTTATTCTCCAAGATTAGTAGCCTTCGAAAAAAATTCCCTAACTATCGATTGGATTTAGTCGGACACTCACTAGGTGGCGCTGTTGCTGCTCTTGCTGGACTTGATCTTAAATTACTTGGATACGAACCTATCGTAACAAC
modifications: misc_feature 1..278: note = Inhibitory double stranded RNA; listed as RNA
Regarding B6, the “average reduction in spore production” value runs as follows: under setting [1], 67%; (A. thaliana whole plant assay) 41%.

B7: 2 (nucleic acid, listed as Golovinomyces orontii)
chain: ATGTCTAGGCATACATCTGCATTTTTCGTTCTCTTTCCTACATTATTCGTCATATTAGCCAGTGCCTATCAATCACACTATGGCTCATCCTATCATCAGCAAGAGTCTCTTCAATCTGACGCACAATGGAATAGCAATATCTCTGATACTTTATTCCTGGAGCTAGAGGAACTAGCTCGTATCGTTGATATTGCTTACTGTGTTGGTACAACAGGAATCTCTAGCCCTTTTGTATGCGCCTCGCATTGCAGCGATTTTCCAAGCTTTGAACTCGTGGATACATTCCATTCAGGATACTTATTGGGCAATAGTTGCGGTTACATTGCACTTGATCATGCGTCGGACAATAACAGAGGACGAATACTGGTAGTTTTCAGGGGTACATACAGTATCGACGACACTATAATAGACCTGACTATGGTACCACAAAAGTACGCGCCATACCCGTCTCATCACGAAAATAATTTCAAAAGATCAGAATCAAGCCCACTTTTTAATTTAATACCTAGTAAAGAAATTCGGTCCCTCTTACGCTCATTCTCACGTATATTTCATCGTCGAAAAGGAAGTAGGCCAGAAAGACATATGCACTCTAACATTGAATGTACGAACTGCACTGTTCATATGGGATTTTGGACAAGCTACCAACAAATACGTCCTCATTTATTCTCCAAGATTAGTAGCCTTCGAAAAAAATTCCCTAACTATCGATTGGATTTAGTCGGACACTCACTAGGTGGCGCTGTTGCTGCTCTTGCTGGACTTGATCTTAAATTACTTGGATACGAACCTATCGTAACAACCTTTGGTGAGCCACGCGTTGGAAATACTGGATTCAGAGATTTCATGGATGCCACATTTAACCTACGCTCCCAGAACTCAGGGGGTCATTTAGACATGCCAAGCTGCAAAGATCACTATCGTAGAGTGACTCATACAAGTGATCCTATGCCATTACTACCGCCGCAAGATTTTGGCTATCGCCCACATGCTGGCGAGGTATTCATCTCAAAACGAGATCTTCCAGTGGCAATACAAGACGTTCGTCACTGTTTTGGTGACGATGATGTGAACTGTATCGAGGAAAGAGGAAACAATAGAGTTTGGACTGATTTATCTGAGACGTCGAAAATAAGAGCCGGCACCAAAGACTCCTTAGATGCCAGGGGTGGCGAATTGAAAAAACGAGATAGGGTACGATTACATCCTCCCCATCTTTGGCGACCCTTTCTAGCGCATCGTGACTATTTTTGGCGCCTAGGATTATGCGTTCCAGGAGATGATCCAACTGGTCAAGTAAGAGACGAGGTTTAG
modifications: listed as DNA
With B7, the “G. orontii Spore Production on Arabidopsis, Detached Leaf Assay, % reduction” value (topical dsRNA against G. orontii target (Gor Seq ID), detached leaf assay, n>=3) is on record as 67%. Also, the “G. orontii Spore Production on Arabidopsis, Whole Plant Assay, % reduction” value (topical dsRNA against G. orontii target (Gor Seq ID), whole plant assay, n>=3) turned out to be 41%.

B8: OEC60/OEC61 dsRNA: long dsRNA against G. orontii effector candidate 60/61 (target SEQ ID NO:122) (nucleic acid)
chain: CACAAAATGGGCCAAATGGGAAATTGTCGAGCTAATTGTGATTGGAAACGAAGCCCTATTTAATGGCCATACTTCTCCAGATGAGCTCGCAAGATTTATTAGCTCAACCAGAAATACACTACGATCCTCTGGTTACAATGGACCTTGCACAACAGCTGAGCCTCTCAATATCTGGCAGCAAAGCTCGGATGTATTGTGTGGT
modifications: misc_feature 1..202: note = Inhibitory double stranded RNA; listed as RNA
With B8, the “effect on spore production” value (A. thaliana whole plant assay) is recorded as “significantly reduced spore production”.

B9: APC1 dsRNA: dsRNA against G. orontii APC1, Anaphase promoting complex/20S cyclosome subunit (target SEQ ID NO:163) (nucleic acid)
chain: AGATTGGTATTATCTCGCCTGAATATGCAACGTTTAGAAGTTCTATTCAGACAAAGCCGACTCTTAATCAACGCAAGGTTTTTACGGTGGCGCCGCCCTTGTGCGCTTCTGACGATGTACAGGAGAATTCTTGTATTATTTGTATCCTTGATCCTAATGAAAAGAAACTTATTACTGTAAATTTAAATATCAAGGCCTCGGAGCAAAAAAGTGAACTCGCAAAATCGGAAAATCTAAAATCTAAGAAAGAGGCAACTACAGTGTCACTT
modifications: misc_feature 1..269: note = Inhibitory double stranded RNA; listed as RNA
For the molecule B9, the “reduction in spore production” value (assay format not stated) is reported as 48%.

B10: AATF dsRNA: long dsRNA against G. orontii apoptosis antagonizing transcription factor (target SEQ ID NO:92) (nucleic acid)
chain: TCCGAAGGAGAGTATTCATCAGAAACTCAGGTTTCAGAATACTCGGACGATCAACTCAACTCTGATAATCTTGAAGATGAAGAATCTGATAGTGATGATGATGATGATATTGGAGATGAAAGAACCGAACGATCCGAAATTCAGAAAATCATGAAAGAAGATCAAAAGACCGTGGTATCAACAATATCTCAAGCAGTAAAAGCAGATGTTGAAAAGGGTAAAGCTGTCAAGGCTCAGCGAATGAGATTCGATTGTTTGTTAAATGTACGAATGGCAATGCAAAA
modifications: misc_feature 1..284: note = Inhibitory double stranded RNA; listed as RNA
With B10, the “average reduction in spore production” value is listed as 32% under setting [1] and 21% (A. thaliana whole plant assay).
